Consider nine molecules from patent US20210032351A1 (XDCEXPLORER SHANGHAI, published 2021).

The EC50 is the concentration that produces a half-maximal response.

Assay [1] concerns the target T1, human EGFRvIII protein on the cell surface (human, UniProt P00533 25-1210). The assay is described as follows: cell-based or functional assay.
In assay [2] the target is T1, human EGFRvIII protein on the cell …. In words: FACS on U87MG-EGFRvIII cells. As to the method: (§1) The preparation of U87MG-EGFRvIII required for FACS detection is as described in the preparation of the immunogen B in example 1. Normal human primary hepatocytes are purchased from BioreclamationIVT, and A431 tumor cells are purchased from ATCC. The recovered hepatocytes are directly used for FACS detection, and the recovered U87MG-EGFRvIII and A431 cells are subjected to an expanded culture to 90% confluence in a T-75 cell culture flask; the medium is sucked out, and the cells are washed twice with a HBSS buffer (Hanks Balanced Salt Solution) (purchased from Invitrogen), and then treated with an enzyme-free cell dissociation solution (Versene solution: purchased from Life Technology) and collected. The cells are washed twice with the HBSS buffer and are counted, and then the cells are diluted with the HBSS buffer to 2×10⁶ cells/ml, added with 1% goat serum blocking solution, with the percentage being the mass percentage, and incubated on ice for 30 minutes, and then centrifugally washed twice with the HBSS buffer. The collected cells are resuspended to 2×10⁶ cells/mL with an FACS buffer (HBSS+2% FBS, with the percentage being the volume percentage), added to a 96-well FACS reaction plate at 100 μL/well, then added with 100 μL/well of the purified EGFRvIII antibody (samples to be tested) obtained in example 12, and incubated on ice for 2 hours. The plate is centrifugally washed twice with the FACS buffer, added with 100 μL/well of a 1:1000 diluted fluorescence (Alexa 488) labeled secondary antibody (purchased from Invitrogen), and incubated on ice for 1 hour. The plate is centrifugally washed 3 times with the FACS buffer, added with 100 μL/well of a fixing solution [4% (v/v) paraformaldehyde] to resuspend the cells, and centrifugally washed twice with the FACS buffer after 10 minutes. The cells are resuspended in 100 μL of the FACS buffer, and the results are detected and analyzed by FACS (FACS Calibur, purchased from BD). Data analysis is performed by using the software (CellQuest) to obtain the mean fluorescence intensity (MFI) of the cells. Data is further analyzed by using the software (GraphPad Prism5) to perform data fitting and calculate EC50.

Assay [3] addresses T2, human EGFRvIII-hFc protein (human, UniProt P00533 25-645).
T2 construct: extracellular domain; also called immunogen A; hFc-tagged EGFRvIII protein; not shown: human IgG Fc fragment (hFc) of the pCpC vector
The assay is described as follows: ELISA, EGFRvIII-hFc coated. As to the method: The purified humanized anti-EGFRvIII antibody obtained in example 12 is reacted with a human EGFRvIII-hFc protein.
The purified immunogen A (EGFRvIII-hFc) obtained in example 1 (for the preparation method, see step (I) in example 1) is diluted with PBS to a final concentration of 1.0 μg/mL, and then added to a 96-well ELISA plate at 100 μl/well. The plate is sealed with a plastic film and incubated at 4° C. overnight. The next day, the plate is washed twice with a plate washing solution [PBS+0.01% (v/v) Tween20], and added with a blocking solution [PBS+0.01% (v/v) Tween20+1% (w/w) BSA] for blocking 2 hours at room temperature. […] The plate is incubated for 2 hours at 37° C., and then washed 3 times with the plate washing solution [PBS+0.01% (v/v) Tween20]. The plate is added with an HRP (horseradish peroxidase) labeled secondary antibody (purchased from Sigma), incubated at 37° C. for 2 hours, and then washed 3 times with the plate washing solution [PBS+0.01% (v/v) Tween20]. The plate is added with 100 μl of TMB substrate/well, incubated for 30 minutes at room temperature, and then added with 100 μl of stopping solution (1.0N HCl)/well. A450 nm value is read using an ELISA plate reader (SpectraMax 384plus, purchased from Molecular Device).

Assay [4] deals with T3, human wild-type EGFR protein on the cell surface (human, UniProt P00533 25-1210).
T3 construct: whole, on cells; Endogenous on A431, HEB, U87MG cells and normal human primary hepatocytes; transfected on CHOk1-EGFR cells; The cell is named under assay; also called A431; HEB
The assay is described as follows: FACS, MFI on A431 cells over MFI on normal primary hepatocytes. As to the method:
as §1

For assay [5], the target named is T3, human wild-type EGFR protein on the …. The assay is described as follows: FACS on normal human primary hepatocytes. As to the method: as §1
Assay [6] has the same target. The assay is described as follows: FACS on A431 tumor cells. As to the method:
as §1

B1: Chimeric antibody 75G7-MMAF (antibody, human IgG1, V domains shown)
VH: EVQLQQSGPELVKPGASVKIPCKASGYTFTDYNMDWVKQSHGKSLEWIGDINPNNGDTIYNQKFKGKATLTVDKSSSTAYMELRSLTSEDTAVYYCARGDYDGYYPVYYAMDYWGQGTSVTVSS
VL: ENVLTQSPAIMSASPGEKVTMTCRASSSVSSSYLHWYQQKSGASPKLWIFSTSNLAAGVPARFSGSGSGTSYSLTVSSVEAEDAATYYCQQYSGYPLTFGAGTKLELK
modifications: MC-MMAF coupled after TCEP reduction (sites not given); DAR 3.40 for the antibody
For the molecule B1, the “IC50, nM; cell killing of U87MG-hEGFRvIII (CellTiter-Glo, 5 days)” value (“IC50, nM; cell killing” below) in assay [1] was 0.27 nM.

B2: Chimeric antibody 63A10-MMAF (antibody, human IgG1, V domains shown)
VH: QVQLQQSGAELARPGASVKMSCKASGYTFISFTMHWVKQRPGQGLEWIGYINPNSGYTKYNQKFKDKATLTAGQSSSTAYMQLSSLTSEDSAVYYCTRGGGRGFAYWGQGTLVTVSA
VL: DILMTQSPSSMSVSLGDTVTITCHASQDINSNIGWLQQKPGKSFKALIYHGTNLEDGVPSRFSGSGSGADYSLTISSLESEDFADYYCVQYAQFPFTFGSGTKLEIK
modifications: MC-MMAF coupled after TCEP reduction (sites not given); DAR 3.10 for the antibody
In the case of B2, the “IC50, nM; cell killing” value in assay [1] worked out at 0.01 nM.

B3: Chimeric antibody 64F1-MMAF (antibody, human IgG1, V domains shown)
VH: QVQLQQSGAELARPGASVKMSCKASGYTFSSYTMHWAKQRPGQGLEWIGYINPSSGYTKYNQKFKDKATLTADKSSSTAYMQLSSLTSEDSIVYYCARGGGRGFAYWGQGTLVTVSA
VL: QIVLTQSPAIMSASPGERVTMTCSASSSVSYMYWYQQKPGSSPRLLIYDTSNLASGVPVRFSGSGSGTSYSLTISRVEAEDAATYYCQQWSSYSLTFGAGTKLELK
modifications: MC-MMAF coupled after TCEP reduction (sites not given); DAR 4.05 for the antibody
Consider B3, for which the “IC50, nM; cell killing” value in assay [1] was found to be 0.01 nM.

B4: Chimeric antibody 7E5-MMAF (antibody, human IgG1, V domains shown)
VH: EIQLQQSGPELVKPGASVKVSCKASGYSFTDYNMYWVKQSHGKSLEWIGYVDPSNGGTNYNQKFKGKATLTVDKSSSTAFMHLNSLTSEDSAVYYCARGFFDYWGQGTTLTVSS
VL: DIVMTQSPSSLTVTAGEKVTMSCKSSQSLLNSGNQKNYLTWYQQKPGQPPKLLIYWASNRESGVPDRFTGSGSGKDFTLTISSVQAEDLAVYYCQNDYRYPVTFGAGTKLELK
modifications: MC-MMAF coupled after TCEP reduction (sites not given); DAR 3.51 for the antibody
As for B4, the “IC50, nM; cell killing” value in assay [1] amounted to 0.04 nM.

B5: Humanized antibody h75G7C6-9 (antibody, human IgG1, V domains shown)
VH: QVQLVQSGAEVKKPGASVKVSCKASGYTFTDYNMDWVRQAPGQGLEWIGDINPNNADTIYNQKFKGRVTLTVDTSTSTVYMELSSLRSEDTAVYYCARGDYDGYYPVYYAMDYWGQGTTVTVSS
VL: EIVLTQSPATLSLSPGERATLSCRASSSVSSSYLHWYQQKPGQAPRLLIYSTSNLAAGIPARFSGSGSGTDFTLTISSLEPEDFAVYYCQQYSGYPLTFGGGTKVEIK
notes: also called VH-g1/VL-g0
For B5, the EC50 in assay [2] amounted to 5830 pM; in assay [3], 580 pM. Moreover, the “Maximum mean fluorescence intensity” value in assay [2] was 18200 MFI. The “Maximum OD450 value” in assay [3] came to 2.83 OD450. Moreover, in assay [4], the “Selective window (MFI A431/Hepatocytes)” value stood at 45 fold. Further, the MFI in assay [5] is 238 MFI; in assay [6], 10700 MFI.

B6: Humanized antibody h75G7C6-14 (antibody, human IgG1, V domains shown)
VH: QVQLVQSGAEVKKPGASVKVSCKASGYTFTDYNMDWVKQAPGQGLEWIGDINPNNADTIYNQKFKGRVTLTVDKSTSTVYMELSSLRSEDTAVYYCARGDYDGYYPVYYAMDYWGQGTTVTVSS
VL: ENVLTQSPATLSLSPGERATLSCRASSSVSSSYLHWYQQKPGQAPRLLIFSTSNLAAGIPARFSGSGSGTDYTLTISSLEPEDFAVYYCQQYSGYPLTFGGGTKVEIK
notes: also called VH-g2/VL-g1
For the molecule B6, in assay [2], a half-maximal effect (EC50) was put at 6370 pM and the “Maximum mean fluorescence intensity” value was determined as 18500 MFI. In assay [3], the EC50 was 320 pM and the “Maximum OD450 value” is 3.03 OD450. Besides, the “Selective window (MFI A431/Hepatocytes)” value in assay [4] came out at 46.2 fold. In addition, the MFI in assay [5] was found to be 248 MFI. In addition, the MFI in assay [6] is 11500 MFI.

B7: Humanized antibody h75G7C6-16 (antibody, human IgG1, V domains shown)
VH: QVQLVQSGAEVKKPGASVKVSCKASGYTFTDYNMDWVKQAPGQGLEWIGDINPNNADTIYNQKFKGRVTLTVDKSTSTVYMELSSLRSEDTAVYYCARGDYDGYYPVYYAMDYWGQGTTVTVSS
VL: ENVLTQSPATLSLSPGERATLSCRASSSVSSSYLHWYQQKPGQSPRLLIFSTSNLAAGVPARFSGSGSGTDYTLTISSLEPEDFAVYYCQQYSGYPLTFGGGTKVEIK
notes: also called VH-g2/VL-g3
B7: in assay [2], the EC50 stood at 6740 pM and the “Maximum mean fluorescence intensity” value is 18900 MFI. In addition, in assay [3], the concentration for a half-maximal effect (EC50) was determined as 270 pM and the “Maximum OD450 value” came to 2.97 OD450. Further, in assay [4], the “Selective window (MFI A431/Hepatocytes)” value was determined as 46.2 fold. This molecule had an MFI in assay [5] of 269 MFI. Also, the MFI in assay [6] was 12400 MFI.

B8: Humanized antibody h75G7C6-13 (antibody, human IgG1, V domains shown)
VH: QVQLVQSGAEVKKPGASVKVSCKASGYTFTDYNMDWVKQAPGQGLEWIGDINPNNADTIYNQKFKGRVTLTVDKSTSTVYMELSSLRSEDTAVYYCARGDYDGYYPVYYAMDYWGQGTTVTVSS
VL: EIVLTQSPATLSLSPGERATLSCRASSSVSSSYLHWYQQKPGQAPRLLIYSTSNLAAGIPARFSGSGSGTDFTLTISSLEPEDFAVYYCQQYSGYPLTFGGGTKVEIK
notes: also called VH-g2/VL-g0
B8: in assay [2], the response was half-maximal at 6770 pM (EC50) and the “Maximum mean fluorescence intensity” value is 18700 MFI. Also, in assay [3], the EC50 was found to be 480 pM and the “Maximum OD450 value” was determined as 3.16 OD450. Also, the “Selective window (MFI A431/Hepatocytes)” value in assay [4] was 44.7 fold. In assay [5], this molecule displayed an MFI of 256 MFI. Also, in assay [6], the MFI came to 11500 MFI.

B9: Humanized antibody h75G7C6-15 (antibody, human IgG1, V domains shown)
VH: QVQLVQSGAEVKKPGASVKVSCKASGYTFTDYNMDWVKQAPGQGLEWIGDINPNNADTIYNQKFKGRVTLTVDKSTSTVYMELSSLRSEDTAVYYCARGDYDGYYPVYYAMDYWGQGTTVTVSS
VL: ENVLTQSPATLSLSPGERATLSCRASSSVSSSYLHWYQQKPGQSPRLLIFSTSNLAAGIPARFSGSGSGTDYTLTISSLEPEDFAVYYCQQYSGYPLTFGGGTKVEIK
notes: also called VH-g2/VL-g2
For the molecule B9, the half-maximal effective concentration (EC50) in assay [2] was 6450 pM; in assay [3], 290 pM. The “Maximum mean fluorescence intensity” value in assay [2] is 18900 MFI. For the same molecule, the “Maximum OD450 value” in assay [3] was found to be 3.19 OD450. For the same molecule, the “Selective window (MFI A431/Hepatocytes)” value in assay [4] came to 45.3 fold. Moreover, the MFI in assay [5] amounted to 287 MFI; in assay [6], 13000 MFI.
